Data set [1] concerns the target T1, Bgl3A (Evansstolkia leycettana, UniProt A0A1B0VFN7).
T1 construct: no tag mentioned
The data set is described as follows: glucose release (GOD-POD), Michaelis-Menten fit. As to conditions: read-out: Cellobiose / Km; 75 °C, pH 4.5, Na2HPO4-citric acid buffer. In kind it is biochemical.

Data set [2] concerns the target T1, Bgl3A. Description: p-nitrophenol release at […] nm, Michaelis-Menten fit. In kind it is biochemical. Particulars: read-out: pNPG / Km; 75 °C, pH 4.5, Na2HPO4-citric acid buffer.
Substrate in the data set “purified protein”: O=[N+]([O-])c1ccc(O[C@@H]2O[C@H](CO)[C@@H](O)[C@H](O)[C@H]2O)cc1
Description: purified protein. Particulars: 75 °C, pH 4.5, Na2HPO4-citric acid buffer.

T1 sequence (A0A1B0VFN7 entry or part of it): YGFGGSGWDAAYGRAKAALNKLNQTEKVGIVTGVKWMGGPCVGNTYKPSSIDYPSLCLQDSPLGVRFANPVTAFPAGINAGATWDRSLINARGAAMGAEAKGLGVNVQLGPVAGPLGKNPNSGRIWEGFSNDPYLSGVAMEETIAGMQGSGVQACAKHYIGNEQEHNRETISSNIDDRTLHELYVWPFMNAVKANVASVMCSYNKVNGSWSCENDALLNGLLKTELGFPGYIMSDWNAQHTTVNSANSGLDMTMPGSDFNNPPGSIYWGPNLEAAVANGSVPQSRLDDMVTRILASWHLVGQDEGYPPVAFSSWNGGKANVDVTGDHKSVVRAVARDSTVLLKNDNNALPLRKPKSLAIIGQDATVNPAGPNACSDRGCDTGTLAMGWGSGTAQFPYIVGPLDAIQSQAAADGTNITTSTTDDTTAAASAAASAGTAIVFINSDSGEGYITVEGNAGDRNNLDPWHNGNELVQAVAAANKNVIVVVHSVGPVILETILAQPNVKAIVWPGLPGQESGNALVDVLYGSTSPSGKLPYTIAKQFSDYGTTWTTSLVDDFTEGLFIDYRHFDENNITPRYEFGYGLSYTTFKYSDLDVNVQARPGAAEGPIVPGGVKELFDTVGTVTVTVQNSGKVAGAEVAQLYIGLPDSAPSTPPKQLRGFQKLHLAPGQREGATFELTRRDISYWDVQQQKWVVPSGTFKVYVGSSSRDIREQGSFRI

As to `OC[C@H]1O[C@@H](O[C@H]2[C@H](O)[C@@H](O)C(O)O[C@@H]2CO)[C@H](O)[C@@H](O)[C@@H]1O` (some centres unmarked) [cellobiose], the Km at Bgl3A [1] was 10400 ± 400 µM.

As to `O=[N+]([O-])c1ccc(O[C@@H]2O[C@H](CO)[C@@H](O)[C@H](O)[C@H]2O)cc1` [4-nitrophenyl β-D-glucopyranoside], the Km at Bgl3A [2] came to 180 ± 30 µM.

B1: Bgl3A (Evansstolkia leycettana; F86Y) (protein)
chain: YGFGGSGWDAAYGRAKAALNKLNQTEKVGIVTGVKWMGGPCVGNTYKPSSIDYPSLCLQDSPLGVRYANPVTAFPAGINAGATWDRSLINARGAAMGAEAKGLGVNVQLGPVAGPLGKNPNSGRIWEGFSNDPYLSGVAMEETIAGMQGSGVQACAKHYIGNEQEHNRETISSNIDDRTLHELYVWPFMNAVKANVASVMCSYNKVNGSWSCENDALLNGLLKTELGFPGYIMSDWNAQHTTVNSANSGLDMTMPGSDFNNPPGSIYWGPNLEAAVANGSVPQSRLDDMVTRILASWHLVGQDEGYPPVAFSSWNGGKANVDVTGDHKSVVRAVARDSTVLLKNDNNALPLRKPKSLAIIGQDATVNPAGPNACSDRGCDTGTLAMGWGSGTAQFPYIVGPLDAIQSQAAADGTNITTSTTDDTTAAASAAASAGTAIVFINSDSGEGYITVEGNAGDRNNLDPWHNGNELVQAVAAANKNVIVVVHSVGPVILETILAQPNVKAIVWPGLPGQESGNALVDVLYGSTSPSGKLPYTIAKQFSDYGTTWTTSLVDDFTEGLFIDYRHFDENNITPRYEFGYGLSYTTFKYSDLDVNVQARPGAAEGPIVPGGVKELFDTVGTVTVTVQNSGKVAGAEVAQLYIGLPDSAPSTPPKQLRGFQKLHLAPGQREGATFELTRRDISYWDVQQQKWVVPSGTFKVYVGSSSRDIREQGSFRI
Regarding B1, in “purified protein”, the Km came out at 240 ± 20 µM, the kcat was 1770 s⁻¹ and the kcat/Km stood at 7.45e+06 M⁻¹ s⁻¹.

B2: Bgl3A (Evansstolkia leycettana; E188Q) (protein)
chain: YGFGGSGWDAAYGRAKAALNKLNQTEKVGIVTGVKWMGGPCVGNTYKPSSIDYPSLCLQDSPLGVRFANPVTAFPAGINAGATWDRSLINARGAAMGAEAKGLGVNVQLGPVAGPLGKNPNSGRIWEGFSNDPYLSGVAMEETIAGMQGSGVQACAKHYIGNEQEHNRQTISSNIDDRTLHELYVWPFMNAVKANVASVMCSYNKVNGSWSCENDALLNGLLKTELGFPGYIMSDWNAQHTTVNSANSGLDMTMPGSDFNNPPGSIYWGPNLEAAVANGSVPQSRLDDMVTRILASWHLVGQDEGYPPVAFSSWNGGKANVDVTGDHKSVVRAVARDSTVLLKNDNNALPLRKPKSLAIIGQDATVNPAGPNACSDRGCDTGTLAMGWGSGTAQFPYIVGPLDAIQSQAAADGTNITTSTTDDTTAAASAAASAGTAIVFINSDSGEGYITVEGNAGDRNNLDPWHNGNELVQAVAAANKNVIVVVHSVGPVILETILAQPNVKAIVWPGLPGQESGNALVDVLYGSTSPSGKLPYTIAKQFSDYGTTWTTSLVDDFTEGLFIDYRHFDENNITPRYEFGYGLSYTTFKYSDLDVNVQARPGAAEGPIVPGGVKELFDTVGTVTVTVQNSGKVAGAEVAQLYIGLPDSAPSTPPKQLRGFQKLHLAPGQREGATFELTRRDISYWDVQQQKWVVPSGTFKVYVGSSSRDIREQGSFRI
For the molecule B2, in “purified protein”, the Km was 210 ± 30 µM, the kcat was 1740 s⁻¹ and the kcat/Km came to 8.39e+06 M⁻¹ s⁻¹.

B3: Bgl3A (Evansstolkia leycettana; M56E) (protein)
chain: YGFGGSGWDAAYGRAKAALNKLNQTEKVGIVTGVKWEGGPCVGNTYKPSSIDYPSLCLQDSPLGVRFANPVTAFPAGINAGATWDRSLINARGAAMGAEAKGLGVNVQLGPVAGPLGKNPNSGRIWEGFSNDPYLSGVAMEETIAGMQGSGVQACAKHYIGNEQEHNRETISSNIDDRTLHELYVWPFMNAVKANVASVMCSYNKVNGSWSCENDALLNGLLKTELGFPGYIMSDWNAQHTTVNSANSGLDMTMPGSDFNNPPGSIYWGPNLEAAVANGSVPQSRLDDMVTRILASWHLVGQDEGYPPVAFSSWNGGKANVDVTGDHKSVVRAVARDSTVLLKNDNNALPLRKPKSLAIIGQDATVNPAGPNACSDRGCDTGTLAMGWGSGTAQFPYIVGPLDAIQSQAAADGTNITTSTTDDTTAAASAAASAGTAIVFINSDSGEGYITVEGNAGDRNNLDPWHNGNELVQAVAAANKNVIVVVHSVGPVILETILAQPNVKAIVWPGLPGQESGNALVDVLYGSTSPSGKLPYTIAKQFSDYGTTWTTSLVDDFTEGLFIDYRHFDENNITPRYEFGYGLSYTTFKYSDLDVNVQARPGAAEGPIVPGGVKELFDTVGTVTVTVQNSGKVAGAEVAQLYIGLPDSAPSTPPKQLRGFQKLHLAPGQREGATFELTRRDISYWDVQQQKWVVPSGTFKVYVGSSSRDIREQGSFRI
On to B3, for which, in “purified protein”, the Km was determined as 250 ± 30 µM, the kcat is 1800 s⁻¹ and the kcat/Km worked out at 7.09e+06 M⁻¹ s⁻¹.

B4: Bgl3A (Evansstolkia leycettana; M56N) (protein)
chain: YGFGGSGWDAAYGRAKAALNKLNQTEKVGIVTGVKWNGGPCVGNTYKPSSIDYPSLCLQDSPLGVRFANPVTAFPAGINAGATWDRSLINARGAAMGAEAKGLGVNVQLGPVAGPLGKNPNSGRIWEGFSNDPYLSGVAMEETIAGMQGSGVQACAKHYIGNEQEHNRETISSNIDDRTLHELYVWPFMNAVKANVASVMCSYNKVNGSWSCENDALLNGLLKTELGFPGYIMSDWNAQHTTVNSANSGLDMTMPGSDFNNPPGSIYWGPNLEAAVANGSVPQSRLDDMVTRILASWHLVGQDEGYPPVAFSSWNGGKANVDVTGDHKSVVRAVARDSTVLLKNDNNALPLRKPKSLAIIGQDATVNPAGPNACSDRGCDTGTLAMGWGSGTAQFPYIVGPLDAIQSQAAADGTNITTSTTDDTTAAASAAASAGTAIVFINSDSGEGYITVEGNAGDRNNLDPWHNGNELVQAVAAANKNVIVVVHSVGPVILETILAQPNVKAIVWPGLPGQESGNALVDVLYGSTSPSGKLPYTIAKQFSDYGTTWTTSLVDDFTEGLFIDYRHFDENNITPRYEFGYGLSYTTFKYSDLDVNVQARPGAAEGPIVPGGVKELFDTVGTVTVTVQNSGKVAGAEVAQLYIGLPDSAPSTPPKQLRGFQKLHLAPGQREGATFELTRRDISYWDVQQQKWVVPSGTFKVYVGSSSRDIREQGSFRI
B4: in “purified protein”, the Km came out at 590 ± 70 µM, the kcat is 1070 s⁻¹ and the kcat/Km worked out at 1.79e+06 M⁻¹ s⁻¹.

One may read the kcat as the number of substrate molecules converted per active site and unit of time at saturation. A word on the kcat/Km: it is the second-order rate constant that governs catalysis at low substrate concentration.

Values taken from paper PMC8699594, “Improving the Substrate Affinity and Catalytic Efficiency of β-Glucosidase Bgl3A from Talaromyces leycettanus JCM12802 by Rational Design” (Biomolecules, 2021).
